This is an account of results in patent US20150037339A1.

The target in assay [1] is Activin A (homodimer of two inhibin βA subunits; R&D Systems, #338-AC) (human) (UniProt P08476). In words: SPR blocking: 5 nM Activin A + 1.88 nM binder over Follistatin-288 surface.
Assay [2] shares this target. Nature of the assay: SPR blocking: 5 nM Activin A + 0.00 nM binder over hActRIIB-hFc (Control 4) surface.
The target is the same in assay [3]. Nature of the assay: SPR blocking: 5 nM Activin A + 0.94 nM binder over Follistatin-288 surface.
For assay [4] the target is unchanged. In words: SPR blocking: 5 nM Activin A + 60 nM binder over hActRIIB-hFc (Control 4) surface.
Assay [5] has the same target. Nature of the assay: SPR blocking: 5 nM Activin A + 15 nM binder over hActRIIA-hFc surface.
Assay [6] shares this target. In words: SPR blocking: 5 nM Activin A + 1.88 nM binder over hActRIIA-hFc surface.
The target is the same in assay [7]. In words: SPR blocking: 5 nM Activin A + 0.94 nM binder over hActRIIA-hFc surface.
For assay [8] the target is unchanged. Nature of the assay: SPR blocking: 5 nM Activin A + 7.50 nM binder over hActRIIA-hFc surface.
For assay [9] the target is unchanged. In words: SPR blocking: 5 nM Activin A + 1.88 nM binder over hActRIIB-hFc (Control 4) surface.
For assay [10] the target is unchanged. In words: SPR blocking: 5 nM Activin A + 15 nM binder over hActRIIB-hFc (Control 4) surface.
For assay [11] the target is unchanged. In words: SPR blocking: 5 nM Activin A + 0.94 nM binder over hActRIIB-hFc (Control 4) surface.
The target is the same in assay [12]. Nature of the assay: SPR blocking: 5 nM Activin A + 0 nM binder over Follistatin-288 surface.
Assay [13] shares this target. In words: SPR blocking: 5 nM Activin A + 30 nM binder over hActRIIB-hFc (Control 4) surface.
The target is the same in assay [14]. Nature of the assay: SPR blocking: 5 nM Activin A + 60 nM binder over Follistatin-288 surface.
Assay [15] shares this target. Nature of the assay: SPR blocking: 5 nM Activin A + 60 nM binder over hActRIIA-hFc surface.
For assay [16] the target is unchanged. In words: SPR blocking: 5 nM Activin A + 0.00 nM binder over hActRIIA-hFc surface.
For assay [17] the target is unchanged. In words: SPR blocking: 5 nM Activin A + 30 nM binder over Follistatin-288 surface.
For assay [18] the target is unchanged. Nature of the assay: SPR blocking: 5 nM Activin A + 3.75 nM binder over hActRIIA-hFc surface.
For assay [19] the target is unchanged. In words: SPR blocking: 5 nM Activin A + 15 nM binder over Follistatin-288 surface.
The target is the same in assay [20]. Nature of the assay: SPR blocking: 5 nM Activin A + 3.75 nM binder over Follistatin-288 surface.
Assay [21] has the same target. In words: SPR blocking: 5 nM Activin A + 3.75 nM binder over hActRIIB-hFc (Control 4) surface.
The target is the same in assay [22]. Nature of the assay: SPR blocking: 5 nM Activin A + 30 nM binder over hActRIIA-hFc surface.
Assay [23] shares this target. In words: SPR blocking: 5 nM Activin A + 7.5 nM binder over Follistatin-288 surface.
Assay [24] shares this target. In words: SPR blocking: 5 nM Activin A + 7.50 nM binder over hActRIIB-hFc (Control 4) surface.
The next assay deals with Activin B (human) (UniProt P09529). In words: SPR (Biacore 4000), captured on anti-human Fc, 200 nM ligand injected, 37 C. (SPR reads the build-up and loss of mass on a sensor chip optically.)
Another assay has as its target GDF11 (human) (UniProt O95390). The assay is described as above.
For another assay, the target named is hBMP10 (human) (UniProt O95393). The assay is described as above.
For the next assay, the target named is GDF8 (human) (UniProt O14793). The description is as above.
In a further assay the target is hBMP2 (human) (UniProt P12643). Described as above.
Another assay concerns the target hBMP7 (human) (UniProt P18075). Described as above.
In assay [25] the target is Activin A (human) (UniProt P08476). The description is as above.
The target in the next assay is Activin AB (human) (UniProt P08476). Described as above.
For another assay, the target named is hBMP6 (human) (UniProt P22004). Described as above.
Another assay deals with hBMP9 (human) (UniProt Q9UK05). The description is as above.
The next assay deals with hBMP4 (human) (UniProt P12644). Described as above.
The next assay concerns the target Activin AC (human) (UniProt P55103). Described as above.
The target in assay [26] is Activin A (human) (UniProt P08476). Nature of the assay: Octet cross-competition; binder on sensor tip; 50 nM hActivin A pre-bound with 1 uM H4H10446P2 (col 1); dark grey box.
For assay [27] the target is unchanged. Nature of the assay: Octet cross-competition; binder on sensor tip; 50 nM hActivin A pre-bound with 1 uM H4H10423P (col 4); dark grey box. On the technique in general: Biolayer interferometry detects binding as a change in optical thickness at a sensor tip.
The target is the same in assay [28]. Nature of the assay: Octet cross-competition; binder on sensor tip; 50 nM hActivin A pre-bound with 1 uM H4H10429P (col 6); dark grey box.
Assay [29] shares this target. In words: Octet cross-competition; binder on sensor tip; 50 nM hActivin A pre-bound with 1 uM H4H10432P2 (col 7); dark grey box.
Assay [30] has the same target. Nature of the assay: Octet cross-competition; binder on sensor tip; 50 nM hActivin A mixed with 1 uM Isotype control 12 (-) (col 12); light grey box (self).
Assay [31] shares this target. Nature of the assay: Octet cross-competition; binder on sensor tip; 50 nM hActivin A pre-bound with 1 uM Control 3 (col 11); dark grey box.
Assay [32] shares this target. In words: Octet cross-competition; binder on sensor tip; 50 nM hActivin A mixed with 1 uM Isotype control 13 (-) (col 13); light grey box (self).
For assay [33] the target is unchanged. In words: Octet cross-competition; binder on sensor tip; 50 nM hActivin A pre-bound with 1 uM Control 1 (col 10); dark grey box.

Activin A (human), sequence (P08476 311-426 limits assumed): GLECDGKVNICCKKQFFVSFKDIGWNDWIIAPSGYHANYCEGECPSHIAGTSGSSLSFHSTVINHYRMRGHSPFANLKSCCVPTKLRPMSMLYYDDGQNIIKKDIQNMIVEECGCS
Activin A (homodimer of two inhibin βA subunits; R&D Systems, #338-AC) (human), sequence (P08476 311-426 limits assumed): as above
Activin AC (human), sequence (chain, as listed by the source, chain 1 of 2): as the sequence (P08476 311-426 limits assumed) above
Activin AC (human), sequence (P55103 237-352, chain 2 of 2): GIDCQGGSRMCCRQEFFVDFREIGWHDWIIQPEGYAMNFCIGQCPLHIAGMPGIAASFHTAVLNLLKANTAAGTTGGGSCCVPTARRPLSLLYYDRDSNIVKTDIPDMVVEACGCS
Activin AB (human), sequence (P08476 311-426 limits assumed, chain 1 of 2): as the sequence (P08476 311-426 limits assumed) above
Activin AB (human), sequence (chain, as listed by the source limits assumed, chain 2 of 2): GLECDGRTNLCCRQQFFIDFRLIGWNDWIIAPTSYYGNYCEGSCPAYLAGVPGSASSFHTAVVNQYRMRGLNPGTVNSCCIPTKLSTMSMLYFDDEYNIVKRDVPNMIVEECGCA
hBMP10 (human), sequence (O95393 317-424 limits assumed): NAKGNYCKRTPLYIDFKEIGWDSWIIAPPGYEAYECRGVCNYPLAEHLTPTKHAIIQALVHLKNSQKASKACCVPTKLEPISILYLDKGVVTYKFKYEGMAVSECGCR
hBMP7 (human), sequence (P18075 293-431 limits assumed): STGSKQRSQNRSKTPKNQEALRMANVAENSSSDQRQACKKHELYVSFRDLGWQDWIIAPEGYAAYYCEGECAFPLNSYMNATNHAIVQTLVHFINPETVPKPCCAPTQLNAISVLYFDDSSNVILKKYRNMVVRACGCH
hBMP6 (human), sequence (P22004 382-513 limits assumed): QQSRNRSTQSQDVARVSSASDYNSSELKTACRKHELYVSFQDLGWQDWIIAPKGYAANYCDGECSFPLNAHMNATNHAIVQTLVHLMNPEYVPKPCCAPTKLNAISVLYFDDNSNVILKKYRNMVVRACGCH
hBMP2 (human), sequence (P12643 283-396 limits assumed): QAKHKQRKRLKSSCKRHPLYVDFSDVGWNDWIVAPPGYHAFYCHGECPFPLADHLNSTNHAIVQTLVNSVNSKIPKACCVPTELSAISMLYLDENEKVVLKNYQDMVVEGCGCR
hBMP4 (human), sequence (P12644 293-408 limits assumed): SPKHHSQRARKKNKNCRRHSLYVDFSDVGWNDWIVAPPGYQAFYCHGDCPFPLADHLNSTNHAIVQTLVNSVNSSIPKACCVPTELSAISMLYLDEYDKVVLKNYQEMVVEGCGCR
hBMP9 (human), sequence (Q9UK05 320-429 limits assumed): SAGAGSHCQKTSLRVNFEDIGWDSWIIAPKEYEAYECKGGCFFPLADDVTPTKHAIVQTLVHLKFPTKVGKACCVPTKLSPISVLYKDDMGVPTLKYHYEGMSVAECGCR
GDF11 (human), sequence (O95390 299-407 limits assumed): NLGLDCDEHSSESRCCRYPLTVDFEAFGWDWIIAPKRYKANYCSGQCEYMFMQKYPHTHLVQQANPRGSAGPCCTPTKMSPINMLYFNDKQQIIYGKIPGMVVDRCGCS
Activin B (human), sequence (P09529 293-407 G326S limits assumed): as the sequence (chain, as listed by the source limits assumed, chain 2 of 2) above

Consider “Control 3 (murine anti-Activin A monoclonal antibody from R&D Systems, catalog number MAB3381)”, for which the % bound RU w/no inhibitor was determined as 170% in assay [1]; 100% in assay [2]; 172% in assay [3]; 2% in [4]; 1% in [5]; 190% in assay [6]. In addition, the % bound RU w/no inhibitor stood at 207% in assay [7]; 32% in assay [8]; 133% in assay [9]; 2% in assay [10]; 135% in assay [11]; 100% in assay [12]. Moreover, the % bound RU w/no inhibitor was found to be 1% in assay [13]; 9% in [14]; 0% in assay [15]; 100% in assay [16]; 7% in [17]; 139% in assay [18]. For the same substance, the % bound RU w/no inhibitor in assay [19] came out at 5%; in assay [20], 145%; in assay [21], 120%; in assay [22], 1%; in assay [23], 33%; in assay [24], 33%.
Turning to Isotype Control mAb (antibody), the binding response (resonance units) for 200 nM ligand in the assay with Activin B (human) is 1.9 RU; in the assay with GDF11 (human), 3 RU; with hBMP10 (human), 0.3 RU; with GDF8 (human) it was 0.5 RU; with hBMP2 (human) it was -1 RU; with hBMP7 (human), 4.3 RU. Also, the binding response (resonance units) for 200 nM ligand with Activin A (human) [25] is -0.1 RU; with Activin AB (human), -0.1 RU; with hBMP6 (human), 5.1 RU; in the assay with hBMP9 (human), -1 RU; with hBMP4 (human), 0.4 RU; in the assay with Activin AC (human), -0.1 RU.
With isotype control antibodies (antibody), the binding response was determined as 0.22 with Activin A (human) [26]; 0.18 with Activin A (human) [27]; 0.22 with Activin A (human) [28]; 0.14 with Activin A (human) [29]; 0.15 with Activin A (human) [30]; 0.2 with Activin A (human) [31]. Further, the binding response with Activin A (human) [32] amounted to 0.24; with Activin A (human) [33], 0.26.
On to isotype control antibody (Example 8), for which the % bound RU w/no inhibitor amounted to 102% in assay [1]; 100% in [2]; 100% in assay [3]; 115% in [4]; 116% in [5]; 112% in [6]. Moreover, the % bound RU w/no inhibitor in assay [7] was 109%; in assay [8], 115%; in assay [9], 105%; in assay [10] it was 110%; in assay [11], 105%; in assay [12], 100%. Also, the % bound RU w/no inhibitor in [13] turned out to be 111%; in assay [14] it was 103%; in assay [15], 119%; in [16], 100%; in assay [17], 104%; in [18], 110%. Besides, the % bound RU w/no inhibitor is 102% in assay [19]; 97% in assay [20]; 104% in assay [21]; 118% in [22]; 102% in assay [23]; 107% in [24].
